The record followed here is patent US20260001928A1 (CORTERIA PHARMACEUTICALS, priority 2022, published 2026).

*1 amine or outer side, *2 acyl side, *3 side chain or, on linkers, in order; H or OH if unused. Where no end group is shown, it is not given here. Side-chain parts run from the residue outwards. [ ]: non-standard residue; d: D form. The star is where a group is joined. C18 diacid = O=C(O)CCCCCCCCCCCCCCCCC(=O)*; C16 diacid = O=C(O)CCCCCCCCCCCCCCC(=O)*; γGlu = O=C(O)[C@H](CCC(=O)[*:2])N[*:1]; AEEA = NCCOCCOCC(=O)O; Propionyl = CCC(=O)*

Experiment [1] has as its target human corticotropin-releasing factor 2a (CRF2a receptor) (human), Q13324. Description: cell-based or functional assay.
Another experiment addresses T1, CRF1R receptor (UniProt P34998 24-415, limits assumed).
T1 sequence (looked up): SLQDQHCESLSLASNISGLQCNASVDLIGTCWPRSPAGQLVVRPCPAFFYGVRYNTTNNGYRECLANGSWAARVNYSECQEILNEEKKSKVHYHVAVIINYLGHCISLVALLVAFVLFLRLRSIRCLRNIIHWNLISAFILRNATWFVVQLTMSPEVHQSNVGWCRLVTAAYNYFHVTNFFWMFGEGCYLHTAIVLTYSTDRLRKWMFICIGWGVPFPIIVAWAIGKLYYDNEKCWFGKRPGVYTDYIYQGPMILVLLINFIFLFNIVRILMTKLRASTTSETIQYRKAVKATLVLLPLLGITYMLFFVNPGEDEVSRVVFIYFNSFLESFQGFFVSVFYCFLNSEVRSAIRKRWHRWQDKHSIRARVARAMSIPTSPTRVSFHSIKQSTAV
Description: cell-based or functional assay.

Chain of human corticotropin-releasing factor 2a (CRF2a receptor) (human), Q13324 (Q13324 20-411): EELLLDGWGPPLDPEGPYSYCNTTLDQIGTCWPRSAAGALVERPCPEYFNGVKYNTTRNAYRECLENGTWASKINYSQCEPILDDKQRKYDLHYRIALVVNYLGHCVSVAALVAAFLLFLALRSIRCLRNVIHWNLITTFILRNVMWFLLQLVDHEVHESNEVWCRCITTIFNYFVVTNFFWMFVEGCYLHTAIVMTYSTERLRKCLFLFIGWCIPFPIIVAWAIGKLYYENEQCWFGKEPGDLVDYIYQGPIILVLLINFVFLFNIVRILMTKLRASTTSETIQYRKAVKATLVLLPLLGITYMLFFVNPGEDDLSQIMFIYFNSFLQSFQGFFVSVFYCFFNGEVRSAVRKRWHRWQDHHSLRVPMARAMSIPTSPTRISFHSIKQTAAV

B1: SEQ ID NO 94 (peptide)
peptide: Propionyl-VLSLDVPIKLK([AEEA-AEEA-γGlu-C18 diacid])KILLEQEKQKKQREQAETNKQILAQV-NH2
SMILES: CCC(=O)N[C@H](C(=O)N[C@@H](CC(C)C)C(=O)N[C@@H](CO)C(=O)N[C@@H](CC(C)C)C(=O)N[C@@H](CC(=O)O)C(=O)N[C@H](C(=O)N1CCC[C@H]1C(=O)N[C@H](C(=O)N[C@@H](CCCCN)C(=O)N[C@@H](CC(C)C)C(=O)N[C@@H](CCCCNC(=O)COCCOCCNC(=O)COCCOCCNC(=O)CC[C@H](NC(=O)CCCCCCCCCCCCCCCCC(=O)O)C(=O)O)C(=O)N[C@@H](CCCCN)C(=O)N[C@H](C(=O)N[C@@H](CC(C)C)C(=O)N[C@@H](CC(C)C)C(=O)N[C@@H](CCC(=O)O)C(=O)N[C@@H](CCC(N)=O)C(=O)N[C@@H](CCC(=O)O)C(=O)N[C@@H](CCCCN)C(=O)N[C@@H](CCC(N)=O)C(=O)N[C@@H](CCCCN)C(=O)N[C@@H](CCCCN)C(=O)N[C@@H](CCC(N)=O)C(=O)N[C@@H](CCCNC(=N)N)C(=O)N[C@@H](CCC(=O)O)C(=O)N[C@@H](CCC(N)=O)C(=O)N[C@@H](C)C(=O)N[C@@H](CCC(=O)O)C(=O)N[C@H](C(=O)N[C@@H](CC(N)=O)C(=O)N[C@@H](CCCCN)C(=O)N[C@@H](CCC(N)=O)C(=O)N[C@H](C(=O)N[C@@H](CC(C)C)C(=O)N[C@@H](C)C(=O)N[C@@H](CCC(N)=O)C(=O)N[C@H](C(N)=O)C(C)C)[C@@H](C)CC)[C@@H](C)O)[C@@H](C)CC)[C@@H](C)CC)C(C)C)C(C)C
B1 yielded an EC50 [nM] (cAMP) in experiment [1] of 1.48 nM. The “Emax (% I)” value with CRF1R receptor is 0%.

B2: SEQ ID NO 33 (peptide)
peptide: Ac-VLSLD[dV]PIKLK([γGlu-C16 diacid])KILLEQEKQKKQREQAETNKQILAQV-NH2
SMILES: CC[C@H](C)[C@H](NC(=O)[C@H](CCC(N)=O)NC(=O)[C@H](CCCCN)NC(=O)[C@H](CC(N)=O)NC(=O)[C@@H](NC(=O)[C@H](CCC(=O)O)NC(=O)[C@H](C)NC(=O)[C@H](CCC(N)=O)NC(=O)[C@H](CCC(=O)O)NC(=O)[C@H](CCCNC(=N)N)NC(=O)[C@H](CCC(N)=O)NC(=O)[C@H](CCCCN)NC(=O)[C@H](CCCCN)NC(=O)[C@H](CCC(N)=O)NC(=O)[C@H](CCCCN)NC(=O)[C@H](CCC(=O)O)NC(=O)[C@H](CCC(N)=O)NC(=O)[C@H](CCC(=O)O)NC(=O)[C@H](CC(C)C)NC(=O)[C@H](CC(C)C)NC(=O)[C@@H](NC(=O)[C@H](CCCCN)NC(=O)[C@H](CCCCNC(=O)CC[C@H](NC(=O)CCCCCCCCCCCCCCC(=O)O)C(=O)O)NC(=O)[C@H](CC(C)C)NC(=O)[C@H](CCCCN)NC(=O)[C@@H](NC(=O)[C@@H]1CCCN1C(=O)[C@H](NC(=O)[C@H](CC(=O)O)NC(=O)[C@H](CC(C)C)NC(=O)[C@H](CO)NC(=O)[C@H](CC(C)C)NC(=O)[C@@H](NC(C)=O)C(C)C)C(C)C)[C@@H](C)CC)[C@@H](C)CC)[C@@H](C)O)C(=O)N[C@@H](CC(C)C)C(=O)N[C@@H](C)C(=O)N[C@@H](CCC(N)=O)C(=O)N[C@H](C(N)=O)C(C)C
In experiment [1], B2 gave an EC50 [nM] (cAMP) of 0.47 nM. For the same molecule, the “Emax (% I)” value in the experiment with CRF1R receptor is 13%.

B3: SEQ ID NO 93 (peptide)
peptide: VLSLD[dV]PIKLK([AEEA-AEEA-γGlu-C18 diacid])KILLEQEKQKKQREQAETNKQILAQV-NH2
modifications: N-terminus assumed
SMILES: CC[C@H](C)[C@H](NC(=O)[C@H](CCC(N)=O)NC(=O)[C@H](CCCCN)NC(=O)[C@H](CC(N)=O)NC(=O)[C@@H](NC(=O)[C@H](CCC(=O)O)NC(=O)[C@H](C)NC(=O)[C@H](CCC(N)=O)NC(=O)[C@H](CCC(=O)O)NC(=O)[C@H](CCCNC(=N)N)NC(=O)[C@H](CCC(N)=O)NC(=O)[C@H](CCCCN)NC(=O)[C@H](CCCCN)NC(=O)[C@H](CCC(N)=O)NC(=O)[C@H](CCCCN)NC(=O)[C@H](CCC(=O)O)NC(=O)[C@H](CCC(N)=O)NC(=O)[C@H](CCC(=O)O)NC(=O)[C@H](CC(C)C)NC(=O)[C@H](CC(C)C)NC(=O)[C@@H](NC(=O)[C@H](CCCCN)NC(=O)[C@H](CCCCNC(=O)COCCOCCNC(=O)COCCOCCNC(=O)CC[C@H](NC(=O)CCCCCCCCCCCCCCCCC(=O)O)C(=O)O)NC(=O)[C@H](CC(C)C)NC(=O)[C@H](CCCCN)NC(=O)[C@@H](NC(=O)[C@@H]1CCCN1C(=O)[C@H](NC(=O)[C@H](CC(=O)O)NC(=O)[C@H](CC(C)C)NC(=O)[C@H](CO)NC(=O)[C@H](CC(C)C)NC(=O)[C@@H](N)C(C)C)C(C)C)[C@@H](C)CC)[C@@H](C)CC)[C@@H](C)O)C(=O)N[C@@H](CC(C)C)C(=O)N[C@@H](C)C(=O)N[C@@H](CCC(N)=O)C(=O)N[C@H](C(N)=O)C(C)C
For B3, the EC50 [nM] (cAMP) in experiment [1] worked out at 5.08 nM. Besides, the “Emax (% I)” value in the experiment with CRF1R receptor was found to be 6%.

B4: SEQ ID NO 92 (peptide)
peptide: Ac-VLSLD[dV]PIKLK([AEEA-AEEA-γGlu-C18 diacid])KILLEQEKQKKQREQAETNKQILAQV-NH2
SMILES: CC[C@H](C)[C@H](NC(=O)[C@H](CCC(N)=O)NC(=O)[C@H](CCCCN)NC(=O)[C@H](CC(N)=O)NC(=O)[C@@H](NC(=O)[C@H](CCC(=O)O)NC(=O)[C@H](C)NC(=O)[C@H](CCC(N)=O)NC(=O)[C@H](CCC(=O)O)NC(=O)[C@H](CCCNC(=N)N)NC(=O)[C@H](CCC(N)=O)NC(=O)[C@H](CCCCN)NC(=O)[C@H](CCCCN)NC(=O)[C@H](CCC(N)=O)NC(=O)[C@H](CCCCN)NC(=O)[C@H](CCC(=O)O)NC(=O)[C@H](CCC(N)=O)NC(=O)[C@H](CCC(=O)O)NC(=O)[C@H](CC(C)C)NC(=O)[C@H](CC(C)C)NC(=O)[C@@H](NC(=O)[C@H](CCCCN)NC(=O)[C@H](CCCCNC(=O)COCCOCCNC(=O)COCCOCCNC(=O)CC[C@H](NC(=O)CCCCCCCCCCCCCCCCC(=O)O)C(=O)O)NC(=O)[C@H](CC(C)C)NC(=O)[C@H](CCCCN)NC(=O)[C@@H](NC(=O)[C@@H]1CCCN1C(=O)[C@H](NC(=O)[C@H](CC(=O)O)NC(=O)[C@H](CC(C)C)NC(=O)[C@H](CO)NC(=O)[C@H](CC(C)C)NC(=O)[C@@H](NC(C)=O)C(C)C)C(C)C)[C@@H](C)CC)[C@@H](C)CC)[C@@H](C)O)C(=O)N[C@@H](CC(C)C)C(=O)N[C@@H](C)C(=O)N[C@@H](CCC(N)=O)C(=O)N[C@H](C(N)=O)C(C)C
B4 showed an EC50 [nM] (cAMP) in experiment [1] of 2.3 nM. The “Emax (% I)” value with CRF1R receptor was 5%.
